The data set in a line: collision cross section of unmodified peptide (TIMS, N2, iRT-aligned); higher = larger / more extended gas-phase ion. Put shortly: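 Synthetic peptide pools (~100 fmol/µL in 2% acetonitrile/0.1% formic acid, iRT standard spiked 1:40) were separated on a 120-min nanoflow C18 gradient at 60 °C. They were analysed on a timsTOF Pro/HT (dda-PASEF, nitrogen, ~2.4 mbar) and identified with MaxQuant. 1/K0 was calibrated with three reference ions and aligned run-wise to the median iRT peptide deviation. Collision cross section came from the Mason-Schamp equation, averaging 1–3 technical replicates of the most abundant feature per charge state.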

± gives the standard deviation.

SSFAYKDQNENR: the collision cross section runs as follows: (charge state: 2) 418.44 ± 1.2 Å²; (charge state: 3) 454.53 ± 4.1 Å².
GSRGFPGEK registered a collision cross section (charge state: 2) of 330.16 ± 0.23 Å².
GGGDRGGFGPGK: the collision cross section runs as follows: (charge state: 2) 338.46 ± 2.1 Å²; (charge state: 3) 414.71 ± 5.6 Å².
In the same order, the values of SNEEGSEEKGPEVR are 397.33 ± 0.57 Å² and 477.66 ± 4.4 Å².
In the same order, the values of DHLSDKESK are 345.48 ± 0.71 Å² and 415 ± 3.9 Å².
In the same order, the values of LEKDYQPGITFIVVQK are 447.32 ± 0.59 Å² and 488.88 ± 0.86 Å².
Regarding TQAYQDQKPGTSGLR, the collision cross section by setting is: (charge state: 2) 425.76 ± 1.4 Å²; (charge state: 3) 489.83 ± 5.9 Å².
On to GDQGEPGPSGNPGK, for which, under “charge state: 2”, the collision cross section is recorded as 342.01 ± 0.23 Å².
For the substance ASPPLFQSR, the collision cross section (charge state: 2) is on record as 339.74 ± 0.58 Å².
In turn, GDAGEPGR registered a collision cross section (charge state: 2) of 283.75 ± 1.9 Å².
In the case of DYQPGITFIVVQKR, the collision cross section was 447.74 ± 2 Å² (charge state: 2) and 520.02 ± 0.34 Å² (charge state: 3).
For the substance VGEFSGANKEK, the collision cross section reads like this: (charge state: 2) 374.9 ± 0.4 Å²; (charge state: 3) 443.03 ± 4.2 Å².
In the same order, the values of FSAYIKNSNPALNDNLEK are 493.15 ± 3.7 Å² and 521.97 ± 3.2 Å².
On to DTGEKLTVAENEAETK, for which the collision cross section came to 436.86 ± 2.7 Å² (charge state: 2) and 520.99 ± 1.8 Å² (charge state: 3).
On to RGATPPAPPRR, for which the collision cross section (charge state: 3) is given as 465.11 ± 2.3 Å².
Regarding LSTPPPLAEEEGLASR, the collision cross section is given as 436.07 ± 0.65 Å² (charge state: 2) and 482.68 ± 0.86 Å² (charge state: 3).
For AGPNASIISLKSDK, the collision cross section reads like this: (charge state: 2) 408.7 ± 1.4 Å²; (charge state: 3) 483.51 ± 6.7 Å².
With EPFSGDHSADGFEVTSR, the collision cross section (charge state: 3) turned out to be 491.61 ± 0.86 Å².
Substance DLATVYVDVLK yielded a collision cross section (charge state: 2) of 382.78 ± 0.75 Å².
In the case of GARLPGPVSSAR, the collision cross section is given as 359.36 ± 0.74 Å² (charge state: 2) and 465.32 ± 9.3 Å² (charge state: 3).
In the same order, the values of GEQGEPGAPGIRTGIQGLK are 452.7 ± 0.99 Å² and 505.34 ± 2.1 Å².
For the substance GSHGQTPSPGALPLGR, under “charge state: 3”, the collision cross section came to 463.73 ± 0.22 Å².
For LGPPGNPGPSGSPGPKGQK, the collision cross section (charge state: 2) came out at 422.18 ± 1.4 Å² and the collision cross section (charge state: 3) stood at 483.14 ± 1.2 Å².
Under “charge state: 2”, VELCSFSGYK showed a collision cross section of 358.19 ± 0.59 Å².
For the substance LAEQEAHYAVR, the collision cross section is, setting by setting: (charge state: 2) 394.57 ± 1.1 Å²; (charge state: 3) 471.99 ± 1.1 Å².
As for GEAGPTGPQGEPGVR, for the setting “charge state: 2”, the collision cross section turned out to be 385.03 ± 0.4 Å².
For DYILEGEPGK, under “charge state: 2”, the collision cross section is recorded as 348.93 ± 0.15 Å².
On to VGYPGPSGPLGAR, for which the collision cross section is listed as 357.93 ± 0.58 Å² (charge state: 2) and 439.38 ± 0.85 Å² (charge state: 3).
In the case of GNPGVGTQGPR, where the note is “charge state: 2”, the collision cross section turned out to be 333.35 ± 8.7 Å².
For the substance GLPGEPGPRGLLGPK, the collision cross section is 406.63 ± 0.39 Å² (charge state: 2) and 459.1 ± 1.2 Å² (charge state: 3).
As to YSSNLGNFNYEQRGAFR, the collision cross section (charge state: 3) turned out to be 529.47 ± 0.012 Å².
Regarding PPGFSPFRSSR, the collision cross section runs as follows: (charge state: 2) 357.9 ± 0.86 Å²; (charge state: 3) 455.41 ± 1.7 Å².
As for HIGFVYHPTK, the collision cross section runs as follows: (charge state: 2) 378.19 ± 1.1 Å²; (charge state: 3) 450.25 ± 1.7 Å².
As to SLIGKVDGTSHVTGK, the collision cross section runs as follows: (charge state: 2) 430.43 ± 0.65 Å²; (charge state: 3) 491.82 ± 0.22 Å².
Under “charge state: 2”, LYDIDVAK showed a collision cross section of 334.71 ± 0.73 Å².
Take YRGDYDR: the collision cross section is, setting by setting: (charge state: 2) 327.87 ± 0.56 Å²; (charge state: 3) 412.63 ± 6.2 Å².

(Values after the supplement of paper PMC10598134.)
